Columns and labels:
Details in all cases: both partners purified
[1] = target: T1, fluorescein-labelled yHsp70 (Ssa1) (yeast, UniProt P10591 1-642, 5-(and -6)-carboxyfluorescein covalently coupled (amine-reactive dye); sites not stated); test: AUC; ternary complexes, fluorescence detection: 0.5 μM fluorescein-labelled yHsp70 and 3 μM yHsp90 with 0.5 to 8 μM Sti1 variant; 10 mM potassium phosphate pH 7.5; 20 °C; 42,000 r.p.m.; dc/dt plots
T1 construct: Yeast Hsp70 Ssa1, full length, labelled with carboxyfluorescein; Same protein as m11, with the fluorescent label used for AUC; also called fluorescently labelled yHsp70; fluorescently labelled Ssa1; source: Pichia pastoris KM71H-Ssa1, purified (Hi-Trap, Superdex 200), then labelled

[2] = target: T2, yHsp90 (Hsp82) (yeast, UniProt P02829 1-709); test: as above
T2 construct: Yeast Hsp90 Hsp82; source: E. coli BL21 (DE3) Codon Plus, purified (Hi-Trap, Superdex 200); not shown: 6xHis-SUMO or thrombin-cleavable 6xHis, N-terminal, cleaved

[3] = target: T3, yHsp70 (Ssa1) (yeast, UniProt P10591 1-642); test: SPR; Hsp70 amine-coupled to a CM5 chip, Sti1 variants as analyte; 40 mM Hepes pH 7.5, 20 mM KCl, 5 mM MgCl2, 0.005% Tween; 10 μl/min; 20 °C; Langmuir isotherm; affinities shown normalized to wild-type Sti1
T3 construct: Yeast Hsp70 Ssa1, full length; The strain carries a 6xHis-SSA1 gene; The methods speak of cleavage of the His6-SUMO tag or His-tag in general, and it is not clear whether this holds for Ssa1; source: Pichia pastoris KM71H-Ssa1, purified (Hi-Trap, Superdex 200)

[4] = target: T3, yHsp70 (Ssa1); test: SAXS; mixtures of a Sti1 variant and Hsp70 at 1:1 and 1:2; solute 1 to 10 mg/ml; in-house SAXSess mc2; masses from I(0)

T3 sequence (P10591 whole entry): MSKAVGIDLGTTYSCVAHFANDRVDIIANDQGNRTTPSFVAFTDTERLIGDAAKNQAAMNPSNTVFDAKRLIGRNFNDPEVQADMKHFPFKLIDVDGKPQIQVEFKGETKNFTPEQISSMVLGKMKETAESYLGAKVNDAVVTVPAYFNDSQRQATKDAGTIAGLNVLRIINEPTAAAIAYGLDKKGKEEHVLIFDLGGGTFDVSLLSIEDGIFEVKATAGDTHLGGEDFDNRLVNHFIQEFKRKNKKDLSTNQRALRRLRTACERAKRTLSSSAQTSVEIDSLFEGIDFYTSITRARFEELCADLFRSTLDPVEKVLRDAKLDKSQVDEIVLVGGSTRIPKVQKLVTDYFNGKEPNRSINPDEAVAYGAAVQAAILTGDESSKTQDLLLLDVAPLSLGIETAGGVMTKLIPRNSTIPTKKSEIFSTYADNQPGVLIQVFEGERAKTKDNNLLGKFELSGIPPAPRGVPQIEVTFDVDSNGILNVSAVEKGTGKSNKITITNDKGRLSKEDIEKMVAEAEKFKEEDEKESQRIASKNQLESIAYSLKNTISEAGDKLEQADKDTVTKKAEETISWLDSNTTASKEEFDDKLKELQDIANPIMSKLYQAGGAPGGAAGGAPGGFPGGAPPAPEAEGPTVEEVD
T1 sequence (P10591 whole entry): as above

Row | binding result [1] | binding result [2] | binding result [3] | stoichiometry N [4] | Binder
1 | binds | binds | binds | – | Sti1 TPR2A–TPR2B (domain or fragment, S. cerevisiae, TPR2A-TPR2B segment of Sti1; also called TPR2A–TPR2B fragment; TPR1-lacking construct; source: E. coli BL21 (DE3) Codon Plus, purified (Hi-Trap, Superdex 200); not shown: 6xHis-SUMO or thrombin-cleavable 6xHis, N-terminal, cleaved) ADKEKAEGNKFYKARQFDEAIEHYNKAWELHKDITYLNNRAAAEYEKGEYETAISTLNDAVEQGREMRADYKVISKSFARIGNAYHKLGDLKKTIEYYQKSLTEHRTADILTKLRNAEKELKKAEAEAYVNPEKAEEARLEGKEYFTKSDWPNAVKAYTEMIKRAPEDARGYSNRAAALAKLMSFPEAIADCNKAIEKDPNFVRAYIRKATAQIAVKEYASALETLDAARTKDAEVNNGSSAREIDQLYYKASQ
2 | – | – | – | 1 | Sti1 (stress-inducible protein 1), wild type (natural protein, S. cerevisiae, UniProt P15705 1-589, looked up, Sti1, yeast cochaperone of Hsp70 and Hsp90, full length; also called wild-type Sti1; full-length Sti1; source: E. coli BL21 (DE3) Codon Plus, purified (Hi-Trap, Superdex 200); not shown: 6xHis-SUMO or thrombin-cleavable 6xHis, N-terminal, cleaved) MSLTADEYKQQGNAAFTAKDYDKAIELFTKAIEVSETPNHVLYSNRSACYTSLKKFSDALNDANECVKINPSWSKGYNRLGAAHLGLGDLDEAESNYKKALELDASNKAAKEGLDQVHRTQQARQAQPDLGLTQLFADPNLIENLKKNPKTSEMMKDPQLVAKLIGYKQNPQAIGQDLFTDPRLMTIMATLMGVDLNMDDINQSNSMPKEPETSKSTEQKKDAEPQSDSTTSKENSSKAPQKEESKESEPMEVDEDDSKIEADKEKAEGNKFYKARQFDEAIEHYNKAWELHKDITYLNNRAAAEYEKGEYETAISTLNDAVEQGREMRADYKVISKSFARIGNAYHKLGDLKKTIEYYQKSLTEHRTADILTKLRNAEKELKKAEAEAYVNPEKAEEARLEGKEYFTKSDWPNAVKAYTEMIKRAPEDARGYSNRAAALAKLMSFPEAIADCNKAIEKDPNFVRAYIRKATAQIAVKEYASALETLDAARTKDAEVNNGSSAREIDQLYYKASQQRFQPGTSNETPEETYQRAMKDPEVAAIMQDPVMQSILQQAQQNPAALQEHMKNPEVFKKIQTLIAAGIIRTGR
3 | binds | binds | binds | – | Sti1 N39A (natural protein, S. cerevisiae, UniProt P15705 1-589, looked up, also called TPR1-defective construct; source: E. coli BL21 (DE3) Codon Plus, purified (Hi-Trap, Superdex 200); not shown: 6xHis-SUMO or thrombin-cleavable 6xHis, N-terminal, cleaved) MSLTADEYKQQGNAAFTAKDYDKAIELFTKAIEVSETPAHVLYSNRSACYTSLKKFSDALNDANECVKINPSWSKGYNRLGAAHLGLGDLDEAESNYKKALELDASNKAAKEGLDQVHRTQQARQAQPDLGLTQLFADPNLIENLKKNPKTSEMMKDPQLVAKLIGYKQNPQAIGQDLFTDPRLMTIMATLMGVDLNMDDINQSNSMPKEPETSKSTEQKKDAEPQSDSTTSKENSSKAPQKEESKESEPMEVDEDDSKIEADKEKAEGNKFYKARQFDEAIEHYNKAWELHKDITYLNNRAAAEYEKGEYETAISTLNDAVEQGREMRADYKVISKSFARIGNAYHKLGDLKKTIEYYQKSLTEHRTADILTKLRNAEKELKKAEAEAYVNPEKAEEARLEGKEYFTKSDWPNAVKAYTEMIKRAPEDARGYSNRAAALAKLMSFPEAIADCNKAIEKDPNFVRAYIRKATAQIAVKEYASALETLDAARTKDAEVNNGSSAREIDQLYYKASQQRFQPGTSNETPEETYQRAMKDPEVAAIMQDPVMQSILQQAQQNPAALQEHMKNPEVFKKIQTLIAAGIIRTGR
4 | – | – | binds | – | Sti1 R469A (natural protein, S. cerevisiae, UniProt P15705 1-589, looked up, source: E. coli BL21 (DE3) Codon Plus, purified (Hi-Trap, Superdex 200); not shown: 6xHis-SUMO or thrombin-cleavable 6xHis, N-terminal, cleaved) MSLTADEYKQQGNAAFTAKDYDKAIELFTKAIEVSETPNHVLYSNRSACYTSLKKFSDALNDANECVKINPSWSKGYNRLGAAHLGLGDLDEAESNYKKALELDASNKAAKEGLDQVHRTQQARQAQPDLGLTQLFADPNLIENLKKNPKTSEMMKDPQLVAKLIGYKQNPQAIGQDLFTDPRLMTIMATLMGVDLNMDDINQSNSMPKEPETSKSTEQKKDAEPQSDSTTSKENSSKAPQKEESKESEPMEVDEDDSKIEADKEKAEGNKFYKARQFDEAIEHYNKAWELHKDITYLNNRAAAEYEKGEYETAISTLNDAVEQGREMRADYKVISKSFARIGNAYHKLGDLKKTIEYYQKSLTEHRTADILTKLRNAEKELKKAEAEAYVNPEKAEEARLEGKEYFTKSDWPNAVKAYTEMIKRAPEDARGYSNRAAALAKLMSFPEAIADCNKAIEKDPNFVRAYIAKATAQIAVKEYASALETLDAARTKDAEVNNGSSAREIDQLYYKASQQRFQPGTSNETPEETYQRAMKDPEVAAIMQDPVMQSILQQAQQNPAALQEHMKNPEVFKKIQTLIAAGIIRTGR

From PMC4403447, “Hsp90 regulates the dynamics of its cochaperone Sti1 and the transfer of Hsp70 between modules” (Nature Communications, 2015)
